T1: α1antichymotrypsin (ACT) (human, UniProt P01011 24-423)
T1 construct: Used in excess in the incubation with PZ-N PSA
T1 sequence (looked up): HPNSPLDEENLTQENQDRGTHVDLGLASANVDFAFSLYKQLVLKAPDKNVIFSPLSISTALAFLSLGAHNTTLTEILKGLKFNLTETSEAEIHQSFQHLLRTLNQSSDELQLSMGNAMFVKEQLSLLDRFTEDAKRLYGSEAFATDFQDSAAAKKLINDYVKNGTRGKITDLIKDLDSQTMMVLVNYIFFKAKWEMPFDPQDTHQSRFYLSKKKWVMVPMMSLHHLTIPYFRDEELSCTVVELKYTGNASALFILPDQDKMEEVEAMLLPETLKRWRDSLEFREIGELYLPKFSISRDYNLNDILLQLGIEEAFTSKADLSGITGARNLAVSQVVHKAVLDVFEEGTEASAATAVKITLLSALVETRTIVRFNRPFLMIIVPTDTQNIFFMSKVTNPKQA


Target: T1, α1antichymotrypsin (ACT)
Assay: incubation with excess ACT, HIC-HPLC, N-terminal sequencing
Protocol: Figure 4: FIG. 4 is HIC-HPLC profile of the reaction mixture of PZ-N PSA incubated with excess ACT. […] Peak 2 is the residual excess active ACT. Peak 3 is the covalent PSA-ACT complex.
The original profile of this PZ-N sample is seen in FIG. 1. […] Peak 2 is the residual excess active ACT remaining after incubation. […] The [−2]pPSA is a truncated form of pPSA which contains the last two amino acids of the 7 amino acid pro leader peptide. PPSA is expressed with a heptapeptide pro leader sequence consisting of APLILSR. Thus, the [−2] pPSA contains the serine-arginine dipeptide on the N-terminal isoleucine of mature PSA. The minor peak eluting at 12 min contains the [−4]pPSA. The retention time of [−4]pPSA has been reported previously (10).

Binder	binding result
[-1]pPSA (enzyme) not shown	no binding
[-2]pPSA (enzyme, also called [-2]proPSA) not shown	no binding
[-4]pPSA (enzyme, also called [-4]proPSA) not shown	no binding
[+5]PSA (enzyme, I equated '[+5]PSA' with 'PSA clipped after Gly4'; also called PSA clipped after Gly4) not shown	no binding
